According to patent US5969101:

Key:
[1] = target: c-Abl wild type, full length

Row | relative transforming activity, colonies in soft agar of Rat1/P185 BCR-Abl cells (P185 BCR-Abl) | No. of Agar Colonies (per 10^4 cells) (agar colonies per 10^4 cells) (c-Abl K290R) | No. of Agar Colonies (per 10^4 cells) (agar colonies per 10^4 cells) [1] | Substance
1 | 70% |  |  | HA-tagged Abi-2Δ1-100 (pCGN/abi-2Δ1-100)
2 |  | 3 | 563 | HA-tagged Abi-2Δ1-157 (pCGN/abi-2Δ1-157)
